According to paper PMC4883770:

Target: Flag-epitope tagged CncC (Drosophila melanogaster) (UniProt P20482)
Sequence (P20482 whole entry): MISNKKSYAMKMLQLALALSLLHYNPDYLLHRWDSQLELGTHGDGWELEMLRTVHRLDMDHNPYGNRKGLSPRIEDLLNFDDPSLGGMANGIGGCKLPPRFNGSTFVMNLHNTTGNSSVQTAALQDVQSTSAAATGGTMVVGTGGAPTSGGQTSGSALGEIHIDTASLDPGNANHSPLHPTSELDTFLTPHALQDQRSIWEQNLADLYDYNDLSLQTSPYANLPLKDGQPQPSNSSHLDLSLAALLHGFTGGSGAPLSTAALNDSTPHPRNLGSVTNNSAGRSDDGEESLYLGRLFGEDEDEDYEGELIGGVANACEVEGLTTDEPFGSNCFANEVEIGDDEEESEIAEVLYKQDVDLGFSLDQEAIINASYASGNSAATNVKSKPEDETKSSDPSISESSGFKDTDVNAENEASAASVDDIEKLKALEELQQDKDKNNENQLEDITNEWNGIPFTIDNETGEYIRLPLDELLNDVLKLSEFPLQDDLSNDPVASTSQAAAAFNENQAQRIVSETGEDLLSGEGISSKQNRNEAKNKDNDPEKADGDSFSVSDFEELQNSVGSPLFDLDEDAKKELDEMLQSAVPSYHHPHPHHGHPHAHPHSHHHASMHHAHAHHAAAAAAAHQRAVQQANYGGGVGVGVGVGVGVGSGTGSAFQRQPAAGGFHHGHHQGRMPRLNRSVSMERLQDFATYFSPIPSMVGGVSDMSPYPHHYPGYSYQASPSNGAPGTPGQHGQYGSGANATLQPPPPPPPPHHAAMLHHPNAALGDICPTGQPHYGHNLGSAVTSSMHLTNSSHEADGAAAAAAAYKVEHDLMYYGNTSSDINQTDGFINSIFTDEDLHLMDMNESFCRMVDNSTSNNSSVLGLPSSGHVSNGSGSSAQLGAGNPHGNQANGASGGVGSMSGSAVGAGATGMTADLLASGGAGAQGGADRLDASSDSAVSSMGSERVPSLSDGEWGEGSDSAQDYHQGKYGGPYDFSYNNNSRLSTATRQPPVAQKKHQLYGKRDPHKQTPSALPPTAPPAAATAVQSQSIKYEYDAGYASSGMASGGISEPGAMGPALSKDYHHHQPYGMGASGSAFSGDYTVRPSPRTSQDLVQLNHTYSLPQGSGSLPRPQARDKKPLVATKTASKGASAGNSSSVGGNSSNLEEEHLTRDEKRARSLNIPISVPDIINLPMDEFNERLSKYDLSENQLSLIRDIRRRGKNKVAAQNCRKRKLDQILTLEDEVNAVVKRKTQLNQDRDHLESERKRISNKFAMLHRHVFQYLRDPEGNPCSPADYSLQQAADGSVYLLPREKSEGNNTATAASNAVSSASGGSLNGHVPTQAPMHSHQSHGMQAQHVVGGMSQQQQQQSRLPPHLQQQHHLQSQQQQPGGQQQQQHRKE

Fs(1)h-L, the long isoform of Fs(1)h (female sterile (1) homeotic), P13709 1-2038 (natural protein; acetylated lysines (shown with a generic anti-acetyl lysine antibody; residues not named)), sequence (P13709 whole entry, canonical isoform): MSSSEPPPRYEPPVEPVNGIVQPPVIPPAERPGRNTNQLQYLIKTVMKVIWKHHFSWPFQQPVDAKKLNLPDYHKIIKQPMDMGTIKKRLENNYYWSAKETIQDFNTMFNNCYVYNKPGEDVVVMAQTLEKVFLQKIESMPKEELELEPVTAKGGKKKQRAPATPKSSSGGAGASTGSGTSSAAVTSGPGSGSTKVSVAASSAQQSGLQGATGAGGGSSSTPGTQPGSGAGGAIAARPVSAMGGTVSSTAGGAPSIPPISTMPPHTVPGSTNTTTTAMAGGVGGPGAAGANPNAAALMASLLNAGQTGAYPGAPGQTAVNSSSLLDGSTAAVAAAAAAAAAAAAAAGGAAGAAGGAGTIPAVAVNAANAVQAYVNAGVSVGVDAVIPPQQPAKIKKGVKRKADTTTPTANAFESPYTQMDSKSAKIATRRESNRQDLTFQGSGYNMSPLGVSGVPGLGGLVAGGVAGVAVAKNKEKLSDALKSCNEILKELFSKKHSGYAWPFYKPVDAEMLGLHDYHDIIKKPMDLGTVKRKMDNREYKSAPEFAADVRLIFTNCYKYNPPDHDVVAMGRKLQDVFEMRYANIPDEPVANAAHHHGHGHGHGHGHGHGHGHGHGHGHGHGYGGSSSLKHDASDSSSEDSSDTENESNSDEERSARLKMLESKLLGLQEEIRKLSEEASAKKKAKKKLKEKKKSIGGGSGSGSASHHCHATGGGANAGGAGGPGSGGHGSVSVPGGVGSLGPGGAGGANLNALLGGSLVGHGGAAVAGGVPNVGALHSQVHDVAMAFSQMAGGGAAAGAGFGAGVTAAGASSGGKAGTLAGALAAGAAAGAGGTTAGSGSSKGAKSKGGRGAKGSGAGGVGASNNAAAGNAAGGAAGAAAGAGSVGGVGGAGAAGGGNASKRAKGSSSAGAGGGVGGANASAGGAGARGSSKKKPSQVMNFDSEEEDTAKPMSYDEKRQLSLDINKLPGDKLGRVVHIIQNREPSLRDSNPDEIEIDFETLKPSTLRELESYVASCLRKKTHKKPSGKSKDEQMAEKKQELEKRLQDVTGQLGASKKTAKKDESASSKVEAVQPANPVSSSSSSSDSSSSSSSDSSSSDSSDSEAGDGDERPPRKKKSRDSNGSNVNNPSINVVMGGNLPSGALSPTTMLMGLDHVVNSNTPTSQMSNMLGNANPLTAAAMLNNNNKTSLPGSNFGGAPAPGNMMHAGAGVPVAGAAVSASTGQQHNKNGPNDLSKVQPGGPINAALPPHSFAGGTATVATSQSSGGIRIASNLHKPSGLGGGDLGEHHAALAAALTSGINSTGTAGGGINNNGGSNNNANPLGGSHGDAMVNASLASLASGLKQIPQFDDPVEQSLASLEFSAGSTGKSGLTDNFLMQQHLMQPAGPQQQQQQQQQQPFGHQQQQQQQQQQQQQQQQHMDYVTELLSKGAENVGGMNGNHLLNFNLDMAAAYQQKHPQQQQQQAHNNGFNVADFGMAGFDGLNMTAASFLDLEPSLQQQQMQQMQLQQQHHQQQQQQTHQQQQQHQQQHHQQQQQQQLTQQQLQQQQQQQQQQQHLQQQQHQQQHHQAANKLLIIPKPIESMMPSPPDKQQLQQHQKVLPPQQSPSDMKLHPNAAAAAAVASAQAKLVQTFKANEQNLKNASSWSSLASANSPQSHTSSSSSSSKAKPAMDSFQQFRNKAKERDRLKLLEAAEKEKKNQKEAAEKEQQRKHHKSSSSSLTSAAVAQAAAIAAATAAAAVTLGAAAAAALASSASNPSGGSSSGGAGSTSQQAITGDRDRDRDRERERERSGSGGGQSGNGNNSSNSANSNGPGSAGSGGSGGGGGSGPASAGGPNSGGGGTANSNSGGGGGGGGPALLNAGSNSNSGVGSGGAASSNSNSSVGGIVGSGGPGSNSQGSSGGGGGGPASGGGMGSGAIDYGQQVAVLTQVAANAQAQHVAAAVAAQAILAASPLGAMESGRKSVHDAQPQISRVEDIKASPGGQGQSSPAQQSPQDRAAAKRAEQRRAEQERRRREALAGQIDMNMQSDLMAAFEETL

With “Fs(1)h-L, the long isoform of Fs(1)h (female sterile (1) homeotic), P13709 1-2038 (natural protein; acetylated lysines (shown with a generic anti-acetyl lysine antibody; residues not named))” as the substance, how does the ARE-fluc reporter activity in S2 cells treated with 1μM JQ1 for 24 hrs, fold change relative to controls read?
The ARE-fluc reporter activity in S2 cells treated with 1μM JQ1 for 24 hrs, fold change relative to controls was 6.5 fold.
